From the DeepSol protein solubility set

Experiment: soluble on expression in E. coli; label from the status in PepcDB or PDB records
For “MRSYAIGDIHGHLSLLQEIHGRIAADRARTGDDEAPVVHIGDLVDRGPDSRGVVEYLRQGIEQGENWVVLKGNHDRMFAGFLRDPAHQDPGLRGDLSWLHPRLGGGPTLESYGVAHAADRPVAIVHREAVALVPAEHVAFIEALPAVYRRDEALFVHAGIRPGVPLAEQIEDDLVWIREPFLSDPRDHGMLVVHGHTAIDAVTHYGNRLNLDSGAAYGGPLSAVVIEGRSVWQLGPEGRRPIALEHHHHHH”, the “soluble on expression in E. coli” value was “not soluble”. For “MRTFDDMLSKQLQDEEFKKEYDAIQPEMDVIRAIVDARTSQNMTQKELAERTGINQADISKLENGTRNPSVNLLKRLADAEMVLVRGSKDNVKPTQND”, the “soluble on expression in E. coli” value was “not soluble”. For “MRTPLSSVSPQLVQRFHELGFTPSSIRNFLGRPGFAAISRGEPASVLYAMRENEDSDFYPLIATFILHRPVAAEALHRVLGGSLTDQLTETGVLEIVDASKAYLTAKIDIRWLELEDDLFWVFSDTDASMIADHVPGKDHVLGVGAASLSLLATTPRSPVNSVLDLGTGSGVQALGQLRHARSVTATDVHPRALDFAEATFAGAHFDVEILDGSWFEPIKNRKFDRIVANPPFVVGPPEIEHVYRDSGLDLDGATETVVRGAVDHLHSNGTAHLLGSWVHKNGESVASRVAEWIPSHGVIAWFLQRDTVDPIQYVNTWLRDESIDPRSEIGFKRTLSWLDHFSRAKVEAVGFGYVAIQRVDDSIPSEVYFEELTHQVDDYLGDEIEEFFVRVDWLREKNRDGIAQSQFYLRPGVAKESVSVTDIDSGMGFTHLKYRITRTEGPRWSHEVDEHIVSVIAGLHPEGLTLEDVATLYAVSNGLDDESFVDAIIDPVVALVRHGILLPAEITKGW”, the “soluble on expression in E. coli” value was “soluble”. With “MRTRSQVWAQKAYEKVREAAKGEGRGEYRDMALKLPVLVRQAGLSQALAFVDSRGKEAHKALGNDLAQVLGYRDLRELAEAAREAELLQYLRLTREVLAAAEWFKRFAQALIEE” the “soluble on expression in E. coli” value was “soluble”. In the case of “MRVCVIGAGLSGLAMGHALKERGISFVCLEKAPDVGGIWRQPGAGERGPGYQSLHLNTARQLTGYADFPMPSDYPLYPRHDQVAAYLRSFAEWAGLLDHVELRTEVLSVRQDSDGSWTVVSRDADGAQSARRFEQVVVASGHHTDPALPDPLPAGADSFAGTILHSLDYRDGGDFAGRRVVVVGLGASAVDIAADLSRHAERTLLSVRRGLHIVPKQVFGMSLDEIAEAPWWNEMPFAERRRWVEQALLVARGRLSDYGLPEPDHPILSSATTLSDEILSRIRHGAVTPKPAIASFESDRVVFTDGSSEAADTVVYCTGFHMTFPFLPPGCPVAADGAVELYRRIVPADRPGLYFVGLVRPAGALTRLVEAQAQWVARLVDGAAALPGTEEMREEISTYLAGIVERYGRTRGASIQVDVSPYLAEFREPLPVLEHHHHHH”, the “soluble on expression in E. coli” value is reported as “soluble”. For “MRVELIYDKRNVGSLANATEIIRAELTKRVHRVFPDAEVNVKAMHANGINTNASKQEKSVLNRLVEEMFDEADEWLNNEF”, the “soluble on expression in E. coli” value was “not soluble”. For “MRVHEPNIIFEDDKHKFIWLGLDESENEKGILTNQYLIVHEGKGYLLDPGGYFVFERVYQNVTRFVKPENIVTILYSHQDPDVIGSLNLWVDLAPNATFYVSALWERFLPHLGAELKGRIVDIPDEGMSIDFIRAIPAHFMHSPGNFHYYDTYAKIYFSGDLGAAIFKDKWYLFVEDFESHIKLMEPFHRRYIASKKAIDIWLKKIEGLEINVIAPQHGAIFEGENAKKFIQWLRNLDKVGLDLME”, the “soluble on expression in E. coli” value was “soluble”. In the case of “MRVLHVCSELFPLLKTGGLADVIGALPAAQLAEGADVRIILPAFPDLRRGIPETVLVREIDTFAGRVALRYGHYRGIGIYLIDAPALYDRAGSPYHDASLYAYSDNYLRFALLGWMACELACGLDGYWRPEVVHAHDWHAGLTCAYLAARGRPARSVFTVHNLAYQGLFSADHLSELHLPAEFFQIYGLEFYGQISYLKAGLFFADHVTTVSPTYAKEITQPAFGYGMEGLLQALARQGRLTGILNGVDSDIWDPQSDTLLPTRYDAENLQAKAINKTHLQTAMGLQLAENKPIFAVVSRLTVQKGLDLVLEALPELLALGGQLVVLGSGDATLQEAFLAAAAEHSGQVGVQIGYHEAFSHRIIAGSDVILVPSRFEPCGLTQLYGLKYGTLPLVRHTGGLADTVVDCALENLADGSASGFVFNECEAQALVKAIRRAFVLWSRPKHWRHVQRHAMRLDFGWQLAAVDYLSLYRRL”, the “soluble on expression in E. coli” value is reported as “not soluble”. In the case of “MRVLLIEKNSVLGGEIEKGLNVKGFMADVTESLEDGEYLMDIRNYDLVMVSDKNALSFVSRIKEKHSSIVVLVSSDNPTSEEEVHAFEQGADDYIAKPYRSIKALVARIEARLRFWGSNVIEIGDLTISPDEEKIIYKGREVEVKGKPFEVLTHLARHRDQIVSKEQLLDAIWEEPEMVTPNVIEVAINQIRQKMDKPLGISTVETVRRRGYRFCYPKPACEE”, the “soluble on expression in E. coli” value is reported as “soluble”. In the case of “MRVLTKKTEEEIRRDFFGPVQEAACKPYLLDVDPRKSWCELSELRLSTLICEFKPIGINKHFHLIGIIERMGKVFDNENAQVEIFLSEENRVAFRNQQRDLLMGGRPERTSYPPKYLCRPSLEMIEDKLKKWFGLRFCEENESYPSEFNSVTDYELPEYIMAEVRELSDKRAERERNTDNGIVESEKKSTIPRRLTEEDENYDIQT”, the “soluble on expression in E. coli” value is reported as “not soluble”. In the case of “MRVLVTGGAGFIGSSFVRYIVNTTDWEVLVYDKLTYAGRLENLHDVIDRIGFMRGDIADEEQFGRVLTEFEPDVVVNFAAETHVDRSINEPAPFMRTNIIGVFTILEAIRKRIDQIVLLHVSTDEVYGDLWNTGKEATESDPLNPSSPYSASKASGDLLIKAYGRTYGLKYRIVRPCNNYGPYQHVEKLIPRTIIRILHGKPPVIYGDGSQIRDWLYVEDTARAIHVVLEKGVDGEIYNVCGGMASTVKDIVVNILESMGKPRDYLVYGKSRPGEDRRYAMKCDKIRNLGWAPHVTLKEGLKITVKWYIENRWWWRPLLDKRYVLADHPW”, the “soluble on expression in E. coli” value is reported as “soluble”. With “MRVNDVNLMRYIQQLSLERKAPTPGSFLFNTVSELAVQQKLRGQIEGYKTTLSQIYNGIGLLNTANAGLESISTALQRARELAVQASNATLTDVERSMIQKEYEEIMRGVKRIIQQTTYNEQRVLAGDVRNLVIQTGPNEGQNVTVNIPNLEETLSELFEVDLSTFEGAQRSLETIDQALENISQIRGNVGSWMNRLESSARSVMNSYTELFKTESLFEPSVAELLLESTKEDILRQTALTGILFRMENAGNVLKLLM” the “soluble on expression in E. coli” value was “not soluble”. In the case of “MRYDVVIIGGGLAGLTCGIRLAEQGKRCAIVSAGQNALHFSSGALDLLSHLPDGQPVSQPLDALDELARQAPHHPYSRMGAAAVAALLPQVEALLERSNISLLGNHQQNHWRMTPLGKFRACWLSPADGVTRGLADSHFGDNPLIAGIEGFLDFQSRIVAGTLQTQGIAARSDELKLPVLDRLRQNPSEFRAVNIARLLDRPENRSALVEELSLLANGNDAIIMPACLGLDSPEIVSELADALGKPVLLLPTLPPSVLGLRLHQALSQRFRQLGGMVMPGDRAVRASLSSQEIAVHSHHHRDIPLRAKHAVLASGSFFSNGLVTQFDRVTEPVFGLDVRFAEQREGWSQQDVFAPQPYMQFGAIVDEHLHPRIAGETVNNLYAIGAVLEGFDPIVQGCGAGVSLLSALHVAEQILKEGNPLEHHHHHH”, the “soluble on expression in E. coli” value is reported as “soluble”. For “MRYERIKYILLFSLMHLVYSNSTFESNPEVRNKSNIYDLPPLLDVTSVNEETPIVKRPINERIENLEFDPRFEIDQAKLEISEDKLGSGFFGEVCYGLLSMRTSNTETDTLQKLSVAVKQSNDPTQENQEKMIEDETKLMCAIGRNPNILAIIGAVTANSGSARNLLIVEFVECGDLLKFLEEKKSIFKDELVYEKNGYLLPKSIRRKTYMFNENEDDVIEESLDSLCTSDLLSFSYQIAEGMEYLASIPCVHRDLALRNVLLNKNKTIRIADFGLARKYQVDGYYRITKGVGTPMPARWMAPEVMREGKCTEKSDVWSYGVSLYEMFSLGELPYSNVSNSDVFEHVVQGNQLPMPQYCHPKMYDRMKQFWNFDATFRPSFSKCVEFFEEHLSVSATNLLEQIQKTLKSEAERQSKLEDWIRRD”, the “soluble on expression in E. coli” value was “not soluble”. With “MRYIAGIDIGNSSTEVALATLDEAGALTITHSALAETTGIKGTLRNVFGIQEALALVARGAGIAVSDISLIRINEATPVIGDVAMETITETIITESTMIGHNPKTPGGAGLGTGITITPQELLTRPADAPYILVVSSAFDFADIASVINASLRAGYQITGVILQRDDGVLVSNRLEKPLPIVDEVLYIDRIPLGMLAAIEVAVPGKVIETLSNPYGIATVFNLSPEETKNIVPMARALIGNRSAVVVKTPSGDVKARAIPAGNLELLAQGRSVRVDVAAGAEAIMKAVDGCGRLDNVTGESGTNIGGMLEHVRQTMAELTNKPSSEIFIQDLLAVDTSVPVSVTGGLAGEFSLEQAVGIASMVKSDRLQMAMIAREIEQKLNIDVQIGGAEAEAAILGALTTPGTTRPLAILDLGAGSTDASIINPKGDIIATHLAGAGDMVTMIIARELGLEDRYLAEEIKKYPLAKVESLFHLRHEDGSVQFFSTPLPPAVFARVCVVKADELVPLPGDLALEKVRAIRRSAKERVFVTNALRALRQVSPTGNIRDIPFVVLVGGSSLDFEVPQLVTDALAHYRLVAGRGNIRGSEGPRNAVATGLILSWHKEFAHER” the “soluble on expression in E. coli” value was “soluble”. With “MRYVVGHKNPDTDSIASAIVLAYFLDCYPARLGDINPETEFVLRKFGVMEPELIESAKGKEIILVDHSEKSQSFDDLEEGKLIAIIDHHKVGLTTTEPILYYAKPVGSTATVIAELYFKDAIDLIGGKKKELKPDLAGLLLSAIISDTVLFKSPTTTDLDKEMAKKLAEIAGISNIEEFGMEILKAKSVVGKLKPEEIINMDFKNFDFNGKKVGIGQVEVIDVSEVESKKEDIYKLLEEKLKNEGYDLIVFLITDIMKEGSEALVVGNKEMFEKAFNVKVEGNSVFLEGVMSRKKQVVPPLERAYNG” the “soluble on expression in E. coli” value was “soluble”. In the case of “MSADTLQIAYSPCPNDTFVFDALAHGRVPGAPALDVTFADIDITNGMAERGELDVLKVSYAVLPYVLDDWALLPCGGALGRGCGPLVLTREADADLRGRTVAVPSETSTAYLLFRLWAADTVPGGVGEIVVMPFHEIMPAVRDGKVDAGLVIHEARFTYQNYGLHKLADMGEHWEHTTGLPIPLGAIIARRSLGAPALTRLADAVRASVRAAWDDPEASRPYVMEHAQEMDPAVADQHIGLYVNEFTADLGEDGYAAIRGLLTRAAAEGLVPALGPDALAFP”, the “soluble on expression in E. coli” value is reported as “not soluble”. With “MSADVVENGRAYNALWWAKVQSGGPQKVPADTPAVAGLARAVEPDGSGLWMLPTVPDGAGHGVLEELGAPPVAVEMPNETARVLAICVACCWTDRDASTWPGVTGTLAQVKAVYAGMRGRAEQSSDLTLIIGSLRRLHATHWLLWNEKAGEVRLGPRTITWSPSDLATLREICRVLPDPPPAVLVARAPEPTPDPLPVAASADGPAPSSDQAAASALPSPAAPPADGAPGPTPDPSPSLTSTSPAPSAPARSTEQSG” the “soluble on expression in E. coli” value was “not soluble”. For “MSAEEQDTRSGGIQVIARAAELLRVLQAHPGGLSQAEIGERVGMARSTVSRILNALEDEGLVASRGARGPYRLGPEITRMATTVRLGVVTEMHPFLTELSRELDETVDLSILDGDRADVVDQVVPPQRLRAVSAVGESFPLYCCANGKALLAALPPERQARALPSRLAPLTANTITDRAALRDELNRIRVDGVAYDREEQTEGICAVGAVLRGVSVELVAVSVPVPAQRFYGREAELAGALLAWVSKVDAWFNGTEDRK”, the “soluble on expression in E. coli” value was “soluble”. In the case of “MSAEPHIVIIGGGFSGAAVAIELLRLAPNGVRVTLLEPRQSPGAGVAYSTAEPTHRINVPAARMQLAGDEEGAFDHWYRHQPAFAVDVQALRPDGSVYPQRGQFGRYVAQRFADAAASSGGRLRHLRDRALAFHQGTVTTDGGLQFKADLLVLAISHPPPSLPPQAEAWRHHPALIANPWQPGALDAIAPHARVAVMGTGLTMADTVVTLDRLGH”, the “soluble on expression in E. coli” value is reported as “not soluble”.
